Results: patent US20140287419A1, “Compositions Having Dicamba Decarboxylase Activity and Methods of Use” (priority 2013, published 2014)

B1: 107 (protein, listed as Rhodopseudomonas palustris)
chain: MAIIDIHGHYTTAPKALEDWRNRQIAGIKDPSVMPKVSELKISDDELQASIIENQLKKMQERGSDLTVFSPRASFMAHHIGDFNVSSTWAAICNELCYRVSQLFPDNFIGAAMLPQSPGVDPKTCIPELEKCVKEYGFVAINLNPDPSGGHWTSPPLTDRIWYPIYEKMVELEIPAMIHVSTSCNTCFHTTGAHYLNADTTAFMQCVAGDLFKDFPELKFVIPHGGGAVPYHWGRFRGLAQEMKKPLLEDHVLNNIFFDTCVYHQPGIDLLNTVIPVDNVLFASEMIGAVRGIDPRTGFYYDDTKRYIEASTILTPEEKQQIYEGNARRVYPRLDAALKAKGK
B2: 101 (protein, listed as Aquifex aeolicus)
chain: MAQKIALCITGASGVIYGIKLLQVLEELDFSVDLVISRNAKVVLKEEHSLTFEEVLKGLKNVRIHEENDFTSPLASGSRLVHYRGVYVVPCSTNTLSCIANGINKNLIHRVGEVALKERVPLVLLVREAPYNEIHLENMLKITRMGGVVVPASPAFYHKPQSIDDMINFVVGKLLDVLRIEHNLYKRWRG
B3: 105 (protein)
chain: MAIDFHVHLDLYPDPVAVARACEERQLTVLSVTTTPAAWRGTLALAAGRPHVWTALGFHPEVVSERAADLPWFDRYLPETRFVGEVGLDGSPSLRGTWTQQFAVFQHILRRCEDHGGRILSIHSRRAESEVLNCLEANPRSGTPILHWYSGSVTELRRAISLGCWFSVGPTMVRTQKGAALIRSMPRDRVLTETDGPFLELDGQAALPWDVKSVVEGLSKIWQIPASEVERIVKENVSRLLGTVR
modifications: Deinococcus radiodurans
B4: 103 (protein)
chain: MAMEIPTEEIKFLKKEDVQNIDLNGMSKKERYEIWRRIPKVELHCHLDLTFSAEFFLKWARKYNLQPNMSDDEILDHYLFTKEGKSLAEFIRKAISVSDLYRDYDFIEDLAKWAVIEKYKEGVVLMEFRYSPTFVSSSYGLDVELIHKAFIKGIKNATELLNNKIHVALICISDTGHAAASIKHSGDFAIKHKHDFVGFDHGGREIDLKDHKDVYHSVRDHGLHLTVHAGEDATLPNLNTLYTAINILNVERIGHGIRVSESDELIELVKKKDILLEVCPISNLLLNNVKSMDTHPIRKLYDAGVKVSVNSDDPGMFLSNINDNYEKLYIHLNFTLEEFMIMNNWAFEKSFVSDDVKSELKALYF
modifications: Plasmodium yoelii yoelii
B5: 98 (protein)
chain: MAIIDCHGHYTTAPAAHDAFRKAQIAHHDDPQQPAPQYPHISDDALRESIEQHQLRLLRERGADMTIFSPRASTMAHHIGNEAVSQVWTQRCNDLIARVVQLYPHTFIGVCQLPQSPGVPISHSIAELERCVNELGFVGCNLNPDPSGGHWNGVPLTDRAWYPFFEKMVELDVPAMVHVSGSCNANFHATGAHYLNADTTAFMQFLEGDLFRDFPSLRFIIPHGGGAVPYHWGRFRGLADMLGKPPLATHVMRNVFFDTCVYHQPGIDLLFEVIDIDNILFGSEMVGAVRGIDPQTGHYFDDTKRYIDALTISDADKRKVFEGNARRVYPRLDAQLRARGL
modifications: Xanthomonas campestris pv.
B6: 10 (protein, listed as Starkeya novella)
chain: MARKIALEEHFTTPELAGKYVARPTQSDALFADIERRLADFDELRLEMMDRAEIDLMVLSVTTPGVQGVRDTGEAIRLARGANDFLAREVQKRPSRYAGFAHLAMQDAEAAATELERAVRELGFRGALINGQTNGHYLDEDQYAPFWERVQELDVPVYLHPGNMADSPAMFAHRPELGGPIWAWTAETAAHALRLVFGGTFTRFPGAKVILGHMGETLPFLLWRLDSRREFDLGEKLAPDALPSAIIKRNIAVTTSGVCDPAPLVAALQALSDDNVMFSVDYPYEDPQLASKFIETAPIGEETRAKVCHGNAERLLGL
B7: 104 (protein)
chain: MANILQEPIDFLKKEELKNIDLSQMSKKERYKIWKRIPKCELHCHLDLCFSADFFVSCIRKYNLQPNLSDEEVLDYYLFAKGGKSLGEFVEKAIKVADIFHDYEVIEDLAKHAVFNKYKEGVVLMEFRYSPTFVAFKYNLDIELIHQAIVKGIKEVVELLDHKIHVALMCIGDTGHEAANIKASADFCLKHKADFVGFDHGGHEVDLKEYKEIFDYVRESGVPLSVHAGEDVTLPNLNTLYSAIQVLKVERIGHGIRVAESQELIDMVKEKNILLEVCPISNVLLKNAKSMDTHPIRQLYDAGVKVSVNSDDPGMFLTNINDDYEELYTHLNFTLEDFMKMNEWALEKSFMDSNIKDKIKNLYF
modifications: Plasmodium Vivax
B8: 106 (protein, listed as Pyrococcus horikoshii)
chain: MAGMKFIKNLHVSKLVIDSMKALINGTIYTSFNPLKKVSGLVISHGKVIYAGDSEVAKKIVELSGGEIVDLKGKYVMPAFFDSHLHLDELGMSLEMVDLRGAKSIEELIQRLKRGKGRIIFGFGWDQDELGEWPTRKELNAIDKPVFIYRKCFHVAVANDKMLELLNLTPSKDFDEDTGIIKEKSLEEARKVINERVLTVEDYVYYIKRAQEHLLDLGVKSVSFMSVNEKALRALFYLEREGKLSINVFAYVTPEVLDKLESIGLGRFQGNRLTIAGVKLFTDGSLGARTALLSKPYSDDPSTSGQLVMEREELIRITEKARSLGLDVAIHAIGDKALDVALDVFETTGFPGRIEHASLVRDDQLERVKNLKVRLSVQPHFIISDWWIVERVGEERVKWVYRFKDLMKVAELGFSTDSPIEPADPWLTVDAAVNRGKGKVKLYELTKDQALDIKDALHSYTYGSARVSLASDIGKLEPGFKAEYIILDRDPLVVK
B9: 99 (protein, listed as Ralstonia solanacearum)
chain: MAIIDCHGHFTTAPTALEDWRKRQIANLATPALGPSPDDLKISDDALTEAIRANQLRLMQARGSDLTIFSPRASFMAHHIGDFHTSATWAAICNALCHRVSQLFPDHFVGAAMLPQSPGVDIRTCIPELARCIVDYGFVGVNLNPDPSGGHWTSPPLSDPYWFPLYEKLVEYDVPAMIHVSTSCNACFHTTGAHYLNADTTAFMQVLTSDLFRRFPTLKFVIPHGGGAVPYHWGRFRGLAQELKTPPLQEHLLHNVFFDTCVYHQPGIDLLTRVIPVDNILFASEMIGAVRGIDPETGHPFDDTRRYIDQAHTLSAEDRHKIYEGNARRVYPRLDARLKARGR
B10: 102 (protein, listed as Lactobacillus plantarum)
chain: MATKTFKTLDDFLGTHFIYTYDNGWEYEWYAKNDHTVDYRIHGGMVAGRWVTDQKADIVMLTEGIYKISWTEPTGTDVALDFMPNEKKLHGTIFFPKWVEEHPEITVTYQNEHIDLMEQSREKYATYPKLVVPEFANITYMGDAGQNNEDVISEAPYKEMPNDIRNGKYFDQNYHRLNK
B11: 12 (protein, listed as Zymoseptoria tritici)
chain: MALGKVAFEEAFALPRFKERTTWWAGLFAVDPEKHTREINDINKLRIEKMDQFGVGYTLLSYTAPGVQDVWQQEEADALAREVNDHVAAEIKGHEDRLGALATLSMHDPQTASAELRRCIKDYGFKGALVNDTQRNDESGTGMIFYDGPEWDVFWSTVQELDVPFYLHPRNPTGVFMEKLWAPRKWLVGPPLSFAQGVSLHLLGMVTNGTFDRFPNLQVIIGHLGEHLPFDLWRINHWFEDIKKPLGLDCKKTIREYFNENIWITTSGHFSTPTLEYCIKEIGAERILFSIDYPFEKFEDACDWYDGVELDGPDTVKKIGRENAKKLFKLGAFKDDSA
B12: 108 (protein, listed as Staphylococcus aureus)
chain: MAKSITFEEHYVIEDIQKETMNAISADPKGVPMKVMLEGLEKKTGFTNADELSHHDERIQFMNNQDVQIQVLSYGNGSPSNLVGQKAIELCQKANDQLANYIAQYPNRFVGFATLPINEPEAAAREFERCINDLGFKGALIMGRAQDGFLDQDKYDIIFKTAENLDVPIYLHPAPVNSDIYQSYYKGNYPEVTAATFACFGYGWHIDVGIHAIHLVLSGIFDRYPKLNMIIGHWGEFIPFFLERMDEALFAEHLNHSVSYYFKNSFYITPSGMLTKPQFDLVKKEVGIDRILYAADYPYIEPEKLGVFLDELGLTDEEKEKISYTNGAKLLGLSSNN
B13: 11 (protein)
chain: MALGKIALEEAFALPRFEEKTRWWASLFSVDPETHVKEITDINKLRIEHADKYGVGYQILSYTAPGVQDIWDPVEAQALAVEINDYIAEQIRDKPDRFGAFATLSMHNPQEAASELRRCVQTYGFKGALVNDTQRAGPDGDDMIFYDNASWDIFWQTCTELDVPLYLHPRNPTGTIYEKLWADRKWLVGPPLSFAQGVSLHVLGMVTNGVFDRHPNLQLIMGHLGEHVPFDMWRINHWFEDRKKLLGLAETCKKTIREYFAQNIWITTSGHFSTTTLNFCMAEVGVDRILFSIDYPFETFEDACVWFDGAELNLSDKAKIGRDNAARLFKLGAFRDYDAKVKA
modifications: Aspergillus niger
B14: 9 (protein, listed as Octadecabacter antarcticus)
chain: MATPKITFEEHFMAPGFEKHSEAFLKLIPRDQAEILTRRLGDFDGERIETMDRGGITRSIISLTGPGTQGEAVEKAVSAAQGANDFLAEKISKKPDRLGGLATLPMHDPDAAARELNRAVNDLGLQGCLVNTHTHGAYYEGTDYDPFWAEVEKLGVPFYLHPSNAYVTPHVLGGMPVLQGATWGWGVETGSHALRILFGGVFDRFPDVKLVLGHMGEALPFLRWRYDSRFGAYPMGVSLDRAPSAYFGSNILITTSGVCSHPSLIGAIGEMGADAVMFSVDYPYEDTDLAVEFIETAPLEDATRVKICHDNAARLFGMPTLAAKEGA
B15: 8 (protein, listed as Metarhizium anisopliae)
chain: MARGKINFEEAFELPTLADSSREQAALYIAPKDLDRYIYHIKHPLGERLQLANSHGIGYTIYSLTVPGIQGIPDQSKAEQHATTVNDWIANEIKDHRDRLGAFAALSMHDAAQAAAELERCVRQHGFHGALLNNYQHAGPDGETYLFYDQPAYDVFWQKCVELDVPVYLHPAAPAGNYYKQMYAQRKYLVGPPLSFANDVSLHLLGLVTNGVFDRFPKLKVVVGHLGEHIPFDFWRISHWLEDVERPLAAGRGDVMSKKDLLYYFKNNIWVTTSGHFSTPTVRYVADYLGPERIMFSVDTPYETIENGVGWFDGEEDALTRALGGEDGYKKVARENAKKLFKLTKYHDCDA

Experiment: 14C assay with IPTG-induced recombinant E. coli cells (14CO2 capture from [14C]-carboxyl-labeled dicamba)
Settings: for Dicamba Decarboxylase Activity: IPTG-induced recombinant E. coli cells, [14C]-carboxyl-labeled dicamba, 14CO2 capture; for Enzymatic Detection level: dicamba decarboxylation activity of the protein of the given SEQ ID NO

Row | Molecule | Dicamba Decarboxylase Activity | Enzymatic Detection level
1 | B1 | No | No
2 | B2 | No | No
3 | B3 | No | No
4 | B4 | No | No
5 | B5 | No | No
6 | B6 | Low | Low
7 | B7 | No | No
8 | B8 | No | No
9 | B9 | No | No
10 | B10 | No | No
11 | B11 | No | No
12 | B12 | High | High
13 | B13 | Low | Low
14 | B14 | No | No
15 | B15 | Low | Low
